The target of assay [1] is cynomolgus monkey IL-13 (NHP IL-13) (cynomolgus monkey). The assay can be described thus: cell-based or functional assay.
Assay [2] has as its target native human IL-13 (human) (UniProt P35225). The assay can be described thus: cell-based or functional assay.

Chain of native human IL-13 (human) (P35225 other isoform, or with tags, fused parts or gaps): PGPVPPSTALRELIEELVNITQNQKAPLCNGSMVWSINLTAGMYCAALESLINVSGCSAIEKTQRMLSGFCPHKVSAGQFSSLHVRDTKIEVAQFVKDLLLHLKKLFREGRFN
Chain of cynomolgus monkey IL-13 (NHP IL-13) (cynomolgus monkey) (Q5I6E4 other isoform, or with tags, fused parts or gaps): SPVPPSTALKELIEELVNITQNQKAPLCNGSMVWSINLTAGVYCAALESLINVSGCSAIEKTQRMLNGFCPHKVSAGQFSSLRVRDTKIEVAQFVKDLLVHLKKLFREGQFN

B1: antibody with the murine heavy chain of MJ2-7 and a humanized light chain (antibody, part only; not given: humanized light chain, V domains shown, part only)
VH: EVQLQQSGAELVKPGASVKLSCTGSGFNIKDTYIHWVKQRPEQGLEWIGRIDPANDNIKYDPKFQGKATITADTSSNTAYLQLNSLTSEDTAVYYCARSEENWYDFFDYWGQGTTLTVSS
Molecule B1 returned a CD23 expression assay, non-human primate IL-13 at 1 ng/ml, IC50 in assay [1] of 0.308 nM. In assay [2], this molecule had an STAT6 phosphorylation assay, native human IL-13 at 1 ng/ml, IC50 of 0.554 nM.
